{"source": "patent US20250304655A1", "molecular_target": "human hemoglobin (HbA) (human) (UniProt P69905)", "sequence (P69905 2-142 limits assumed, chain 1 of 2)": "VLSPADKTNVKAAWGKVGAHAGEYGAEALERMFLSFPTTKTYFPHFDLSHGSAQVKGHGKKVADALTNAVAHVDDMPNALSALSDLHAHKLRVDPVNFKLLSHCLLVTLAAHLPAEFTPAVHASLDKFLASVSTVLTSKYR", "sequence (P68871 2-147 limits assumed, chain 2 of 2, further chain)": "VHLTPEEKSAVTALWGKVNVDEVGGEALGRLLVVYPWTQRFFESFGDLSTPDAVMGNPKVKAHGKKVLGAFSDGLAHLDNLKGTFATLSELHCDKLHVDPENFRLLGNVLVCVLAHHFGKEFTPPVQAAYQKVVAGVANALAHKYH", "test": "cell-based or functional assay", "data": [{"substance": "recHp1-1", "values": [{"measurement": "median relative relaxation", "value": 83, "unit": "%"}]}]}
